Reference: patent US20250270301A1 (GEN2 NEUROSCIENCE, published 2025)
Residue numbers refer to the chain shown, from its start.

B1: #44 VH3VK2 humanised hIgG1 (antibody, V domains shown)
VH: QVQLQESGPGLVKPSETLSLTCTVSGIDLSSYAMAWVRQAPGKGLEWIGCIDRRGGTFYASWVKGRFTISKTSTTVDLQMTSLTAEDTATYFCARDSGAFDPWGQGTLVTVSS
VL: QIVMTQSPSSLSASVGDRVTITCQASQSVYDNYLAWYQQKPGQPPKLLIHAASNLASGVPSRFKGSGSGTEFTLTISSLQPDDFATYYCLGEFSCTTTDCNVFGGGTKVEIK
notes: also called VH3Vκ2
B2: #44 VH1VK2 humanised hIgG1 (antibody, V domains shown)
VH: QSVQESGGGLVKPSETLSLTCTVSGIDLSSYAMAWVRQAPGKGLEWIGCIDRRGGTFYASWVKGRFTISKTSTTVDLKMTSLTAEDTATYFCARDSGAFDPWGQGTLVTVSS
VL: B1 VL
notes: also called VH1Vκ2
B3: #44 VH6VK4 humanised hIgG1 (antibody, V domains shown)
VH: QVQLQESGPGLVKPSETLSLTCTVSGIDLSSYAMSWVRQAPGKGLEWVSCIDRRGGTFYASWVKGRFTISRDNSKNTLDLQMTSLTAEDTATYYCARDSGAFDPWGQGTLVTVSS
VL: B1 VL with Q1D, V3Q, K64S
notes: also called VH6Vκ4
B4: #44 VH3VK1 humanised hIgG1 (antibody, V domains shown)
VH: B1 VH
VL: B1 VL with G58R, P81C, K108E, E110V
notes: also called VH3Vκ1
B5: #44 VH5VK2 humanised hIgG1 (antibody, V domains shown)
VH: B3 VH with S35A, V48I, S49G
VL: B1 VL
notes: also called VH5Vκ2
B6: #44 VH6VK2 humanised hIgG1 (antibody, V domains shown)
VH: B3 VH
VL: B1 VL
notes: also called VH6Vκ2
B7: #44 VH5VK1 humanised hIgG1 (antibody, V domains shown)
VH: B3 VH with S35A, V48I, S49G
VL: B1 VL with G58R, P81C, K108E, E110V
notes: also called VH5Vκ1
B8: #44 VH1VK4 humanised hIgG1 (antibody, V domains shown)
VH: B2 VH
VL: B1 VL with Q1D, V3Q, K64S
notes: also called VH1Vκ4
B9: #44 VH1VK3 humanised hIgG1 (antibody, V domains shown)
VH: B2 VH
VL: B1 VL with Q1D, V3Q
notes: also called VH1Vκ3
B10: #44 VH6VK3 humanised hIgG1 (antibody, V domains shown)
VH: B3 VH
VL: B1 VL with Q1D, V3Q
notes: also called VH6Vκ3
B11: #44 VH5VK4 humanised hIgG1 (antibody, V domains shown)
VH: B3 VH with S35A, V48I, S49G
VL: B1 VL with Q1D, V3Q, K64S
notes: also called VH5Vκ4
B12: #44 VH2VK1 humanised hIgG1 (antibody, V domains shown)
VH: B2 VH with G8P, K78Q
VL: B1 VL with G58R, P81C, K108E, E110V
notes: also called VH2Vκ1
B13: #44 VH4VK1 humanised hIgG1 (antibody, V domains shown)
VH: B3 VH with S35A, V48I, S49G, R71K, N73T, N76T, L78V, Y94F
VL: B1 VL with G58R, P81C, K108E, E110V
notes: also called VH4Vκ1
B14: #44 VH5VK3 humanised hIgG1 (antibody, V domains shown)
VH: B3 VH with S35A, V48I, S49G
VL: B1 VL with Q1D, V3Q
notes: also called VH5Vκ3
B15: #44 VH1VK1 humanised hIgG1 (antibody, V domains shown)
VH: B2 VH
VL: B1 VL with G58R, P81C, K108E, E110V
notes: also called VH1Vκ1
B16: #44_VH4_H07/L2 (antibody, V domains shown)
VH: QVQLQESGPGLVKPSETLSLTCTVSGIDLSSYAMAWVRQAPGKGLEWIGAIDAAGNTFYASWVKGRFTISKDTSKTTVDLQMTSLTAEDTATYFCARDSGAFDPWGQGTLVTVSS
VL: DIQMTQSPSSLSASVGDRVTITCQASQSVYDNYLAWYQQKPGQPPKLLIHAASNLASGVPSRFSGSGSGTEFTLTISSLQPDDFATYYCLGEFSCQDTDCNVFGGGTKVEIKR
notes: also called Clone VH4_H07/L2
B17: #44_VH4_H09/L2 (antibody, V domains shown)
VH: B16 VH with A54R
VL: B16 VL
notes: also called Clone VH4_H09/L2
B18: #44_VH4_H14/L2 (antibody, V domains shown)
VH: B16 VH with A53S, N56S, F67S
VL: B16 VL
notes: also called Clone VH4_H14/L2
B19: #44_VH4_H06/L2 (antibody, V domains shown)
VH: B16 VH with A50V, N56H, A101T
VL: B16 VL
notes: also called Clone VH4_H06/L2
B20: #44_VH4_H13/L2 (antibody, V domains shown)
VH: B16 VH with A53S
VL: B16 VL
notes: also called Clone VH4_H13/L2
B21: #44_VH4VK4_H06-H01/pVL (antibody, V domains shown)
VH: B16 VH with A50V, N56H, S99V, A101S, P104V
VL: B1 VL with Q1D, V3Q, K64S
notes: also called H06-01/pVL; Clone VH4H_06_H01
B22: #44_VH4VK4_H06-H04/pVL (antibody, V domains shown)
VH: B16 VH with A50V, N56H, S99A, A101S, D103H
VL: B1 VL with Q1D, V3Q, K64S
notes: also called H06-04/pVL; Clone VH4_H06_H04
B23: #44_VH4VK4_H06-H02/pVL (antibody, V domains shown)
VH: B16 VH with A50V, N56H, S99R, A101D, P104V
VL: B1 VL with Q1D, V3Q, K64S
notes: also called H06-02/pVL; Clone VH4_H06_H02
B24: #44_VH4VK4_H16-H04/pVL (antibody, V domains shown)
VH: B16 VH with A53R, S99A, A101S, D103H
VL: B1 VL with Q1D, V3Q, K64S
notes: also called Clone VH4_H16_H04; #44_VH4_H16-H04

target: T1, Bovine serum albumin (bovine, UniProt P02769 25-607); assay: ELISA on 1% BSA, HEK supernatant, anti-human IgG-HRP, n=1
T1 construct: also called BSA
Method: FIG. 7. A panel of humanised anti-tau IgG bind to full length recombinant 2N4R tau in an ELISA format. Supernatants from HEK cells transiently transfected with each IgG clone were tested at 1:100 for binding to full length recombinant 2N4R tau (solid bars). […] Binding of anti-tau hIgG1 was detected using an HRP-conjugated anti-human secondary antibody and data are shown from a representative experiment (n=1 replicate).
Antigen was removed from wells and the plates were then blocked for 1 hour at RT with 5% dried milk in 1×TBS. Blocking solution was removed, HEK293 cell supernatant (1:100 in 1% BSA/1×TBS) was added to relevant wells, and plates were incubated for 1 hour at RT with gentle shaking. Plates were then washed four times with TBS/0.1% Tween (TBST). Goat anti-human IgG-HRP antibody (Thermo Fisher Scientific, Waltham, MA, USA), diluted 1:2000 in 5% milk/TBS, was added to each well and plates were incubated for 1 hour at RT with gentle shaking before being washed four times with TBST. 3,3′,5,5′-tetramethylbenzidine (TMB) ELISA solution was added to each well and plates were incubated for 15 mins at RT. An equal volume of 1 M sulfuric acid was added to each well and OD was measured at 450 nm.

T1 sequence (P02769 25-607 limits assumed): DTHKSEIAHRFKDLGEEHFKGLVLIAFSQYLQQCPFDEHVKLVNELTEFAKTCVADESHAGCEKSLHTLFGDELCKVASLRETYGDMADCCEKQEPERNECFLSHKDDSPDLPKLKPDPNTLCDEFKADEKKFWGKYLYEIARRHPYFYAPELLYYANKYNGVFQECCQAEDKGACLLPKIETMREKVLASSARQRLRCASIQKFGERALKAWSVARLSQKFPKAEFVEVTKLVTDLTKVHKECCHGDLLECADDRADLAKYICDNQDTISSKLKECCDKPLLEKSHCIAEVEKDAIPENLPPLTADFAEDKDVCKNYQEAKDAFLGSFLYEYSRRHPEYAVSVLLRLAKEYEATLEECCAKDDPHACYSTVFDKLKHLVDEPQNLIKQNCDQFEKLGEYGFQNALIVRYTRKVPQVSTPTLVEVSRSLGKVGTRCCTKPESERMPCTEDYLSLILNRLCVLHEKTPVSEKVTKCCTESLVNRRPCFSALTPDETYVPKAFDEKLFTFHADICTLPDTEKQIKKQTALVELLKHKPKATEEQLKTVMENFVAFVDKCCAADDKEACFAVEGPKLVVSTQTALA

Row | binding result | Binder
1 | no binding (tested: supernatant 1:100) | B1
2 | no binding (tested: supernatant 1:100) | B2
3 | no binding (tested: supernatant 1:100) | B3
4 | no binding (tested: supernatant 1:100) | B4
5 | no binding (tested: supernatant 1:100) | B5
6 | no binding (tested: supernatant 1:100) | B6
7 | no binding (tested: supernatant 1:100) | B7
8 | no binding (tested: supernatant 1:100) | B8
9 | no binding (tested: supernatant 1:100) | B9
10 | no binding (tested: supernatant 1:100) | B10
11 | no binding (tested: supernatant 1:100) | B11
12 | no binding (tested: supernatant 1:100) | B12
13 | no binding (tested: supernatant 1:100) | B13
14 | no binding (tested: supernatant 1:100) | B14
15 | no binding (tested: supernatant 1:100) | B15

target: T2, full length recombinant human 2N4R tau (human, UniProt P10636 1-758); assay: SPR SCK, IgG on Protein A, tau in flow
T2 construct: bought from rPeptide; pHrodo Red maleimide-labelled where it stands in uptake assays; also called tau1-441; full length tau
T2 sequence (P10636 other isoform, or with tags, fused parts or gaps limits assumed): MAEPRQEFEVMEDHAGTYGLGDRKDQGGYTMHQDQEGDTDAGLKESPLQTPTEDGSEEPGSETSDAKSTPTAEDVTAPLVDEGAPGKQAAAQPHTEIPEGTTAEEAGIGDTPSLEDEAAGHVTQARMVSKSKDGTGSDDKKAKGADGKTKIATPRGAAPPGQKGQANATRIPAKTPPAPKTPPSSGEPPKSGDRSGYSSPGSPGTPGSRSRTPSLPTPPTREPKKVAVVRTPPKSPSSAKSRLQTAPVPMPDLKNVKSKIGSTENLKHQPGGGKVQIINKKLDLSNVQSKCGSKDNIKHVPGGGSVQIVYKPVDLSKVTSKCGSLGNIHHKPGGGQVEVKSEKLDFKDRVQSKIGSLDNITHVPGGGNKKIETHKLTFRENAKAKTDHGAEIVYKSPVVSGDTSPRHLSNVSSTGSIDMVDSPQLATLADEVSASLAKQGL

Row | Fold change (KD, to pVH/pVL) | Kd | koff | kon | Binder
16 | 0.26 | 24.9 nM | 0.0124 s⁻¹ | 497000 M⁻¹ s⁻¹ | B16
17 | 0.45 | 14.6 nM | 0.0106 s⁻¹ | 728000 M⁻¹ s⁻¹ | B17
18 | 0.52 | 12.6 nM | 0.0161 s⁻¹ | 1.28e+06 M⁻¹ s⁻¹ | B18
19 | 3.54 | 1.86 nM | 0.00841 s⁻¹ | 4.52e+06 M⁻¹ s⁻¹ | B19
20 | 0.28 | 23.5 nM | 0.00844 s⁻¹ | 358000 M⁻¹ s⁻¹ | B20
21 | 1.71 | 3.85 nM | 0.0121 s⁻¹ | 3.15e+06 M⁻¹ s⁻¹ | B21
22 | 9.11 | 0.722 nM | 0.00443 s⁻¹ | 6.14e+06 M⁻¹ s⁻¹ | B22
23 | 7.73 | 0.851 nM | 0.00489 s⁻¹ | 5.75e+06 M⁻¹ s⁻¹ | B23
24 | 7.88 | 0.835 nM | 0.00417 s⁻¹ | 4.99e+06 M⁻¹ s⁻¹ | B24

target: T2, full length recombinant human 2N4R tau; assay: SPR SCK, IgG on Protein A, tau in flow; remark: another data set of the same source
Method: 21.5 Assessment of antibody binding to tau (Biacore SCK analysis): Binding of anti-tau hIgG1 to full length recombinant 2N4R tau (Rpeptide; SEQ ID NO: 2) was assessed using the Biacore T200 (GE Healthcare, Chicago, IL, USA) running Biacore T200 Evaluation Software V2.0.1. hIgG1 were immobilised on a Protein A capture sensor chip in running buffer (HBS-EP+ buffer containing 1 mg/mL BSA) at 25° C., captured to ˜50 RU at 10 μL/min. For single-cycle kinetics experiments, recombinant 2N4R tau was flowed at concentrations ranging from 1.25 nM to 10 nM (2-fold dilutions) with an association time of 60 s and a dissociation time of 200 s. Curves were compared to a reference cell that was mock immobilized (no antibody present).

Row | Kd | Relative KD (to VH0VK0) | koff | kon | Binder
25 | 7.64 nM | 1.99 | 0.0356 s⁻¹ | 4.66e+06 M⁻¹ s⁻¹ | B1
26 | 4.26 nM | 1.11 | 0.0232 s⁻¹ | 5.43e+06 M⁻¹ s⁻¹ | B2
27 | 4.35 nM | 1.14 | 0.0121 s⁻¹ | 2.79e+06 M⁻¹ s⁻¹ | B4
28 | 12.6 nM | 3.29 |  |  | B5
29 | 8.31 nM | 2.17 | 0.187 s⁻¹ | 2.25e+07 M⁻¹ s⁻¹ | B7
30 | 4.15 nM | 1.08 | 0.0208 s⁻¹ | 5.01e+06 M⁻¹ s⁻¹ | B8
31 | 5 nM | 1.31 | 0.0129 s⁻¹ | 2.58e+06 M⁻¹ s⁻¹ | B9
32 | 9.63 nM | 2.51 | 0.0684 s⁻¹ | 7.11e+06 M⁻¹ s⁻¹ | B11
33 | 7.94 nM | 2.07 | 0.021 s⁻¹ | 2.64e+06 M⁻¹ s⁻¹ | B12
34 | 6.81 nM | 1.78 | 0.03 s⁻¹ | 4.4e+06 M⁻¹ s⁻¹ | B13
35 | 14.2 nM | 3.71 | 0.0406 s⁻¹ | 2.86e+06 M⁻¹ s⁻¹ | B14
36 | 3.16 nM | 0.83 | 0.0232 s⁻¹ | 7.35e+06 M⁻¹ s⁻¹ | B15
